To fix the notation:
B1: 10A3D6hum2.2-afuc (afucosylated 10A3D6hum2.2) (antibody, human IgG1, kappa, V domains shown)
VH: QVQLVQSGAEVKKPGASVKVSCKASGYSFTGYTMNWVRQAPGQNLEWIGLINPNTGGTYYNQKFKDRVTLTVDTSISTAYMELSRLRSDDTAVYYCARLGDNYRGYFDSWGQGTTVTVSS
VL: DIQLTQSPSFLSASVGDRVTITCKASQDVGTAVVWYQQKPGKAPKLLIDWASIRHTGVPSRFSGSGSGTEFTLTISSLQPEDFADYFCQQYSTYLYTFGGGTKLEIKR
modifications: Fc N-glycan afucosylated (produced in FUT8 knockout cells). The amino-acid letters are unchanged from 10A3D6hum2.2.
B2: 10A3D6hum1.2 (antibody, V domains shown)
VH: B1 VH with N44G, I48M, L70M, V72R
VL: B1 VL
modifications: Fluorescently labelled in the competition assay; dye and attachment site not stated.
notes: Humanized antibody; also called 103AD6hum1.2; copies: 2 + 2
B3: 10A3D6hum1.5 (antibody, V domains shown)
VH: B1 VH with N44G, I48M, L70M, V72R
VL: EIVMTQSPATLSVSPGERATLSCKASQDVGTAVVWYQQKPGQAPRLLIDWASIRHTGIPARFSGSGSGTEFTLTISSLQSEDFAVYYCQQYSTYLYTFGGGTKVEIK
notes: Humanized antibody
B4: 10A3D6hum2.2 (antibody, human IgG1, kappa, V domains shown)
VH: B1 VH
VL: B1 VL
notes: copies: 2 + 2
B5: 10A3D6C109Chum4.5 (antibody, V domains shown)
VH: B1 VH with P41H, V68A, S109C
VL: B3 VL
notes: Humanized variant of 10A3D6 made by CDR grafting
B6: 10A3D6C109Chum5.5 (antibody, V domains shown)
VH: B1 VH with I48M, A92V, S109C, T115L
VL: B3 VL
notes: as for B5
B7: 10A3D6-hIgG1k (mouse/human chimeric antibody with 10A3D6 variable regions and human IgG1-kappa constant regions) (antibody)
heavy: not shown
light: DIVMTQSHKFMSTSVGDRVNITCKASQDVGTAVVWYQQTPGQSPKVLIDWASIRHTGVPDRFTGSGSGTDFTLTISSVQSEDLADYFCQQYSTYLYTFGGGTKLEIKRTVAAPSVFIFPPSDEQLKSGTASVVCLLNNFYPREAKVQWKVDNALQSGNSQESVTEQDSKDSTYSLSSTLTLSKADYEKHKVYACEVTHQGLSSPVTKSFNRGEC
notes: also called 10A3D6-chimeric; 10A3D6-hIgGlk; copies: 2 + 2

Results on seven molecules are retold here after patent publication US20250270328A1 (BRIGHAM AND WOMEN S HOSPITAL, published 2025).

Changes are numbered by the printed parent chain.

The first experiment concerns the target T1, human KLRB1 expressed on CHO-K1 cells (CHO-hum-KLRB1) (human, UniProt Q12918 1-225).
T1 sequence: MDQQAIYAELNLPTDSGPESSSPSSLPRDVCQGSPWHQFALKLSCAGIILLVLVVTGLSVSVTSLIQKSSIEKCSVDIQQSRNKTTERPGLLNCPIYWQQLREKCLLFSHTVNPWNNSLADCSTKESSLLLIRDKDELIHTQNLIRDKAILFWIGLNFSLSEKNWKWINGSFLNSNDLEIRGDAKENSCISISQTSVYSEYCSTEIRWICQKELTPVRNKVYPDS
The experiment is described as follows: cell-based or functional assay.
On to B1, for which the “ADCC target cell killing EC50 (flow cytometry, human NK cells)” value was determined as 0.01 nM.

Another experiment deals with T2, human KLRB1 protein extracellular domain (ECD) (human, UniProt Q12918 67-225).
T2 construct: range 67-225; The ELISA and SPR text says only 'human KLRB1 ECD'; also called human KLRB1 ECD; CD161
T2 sequence (looked up): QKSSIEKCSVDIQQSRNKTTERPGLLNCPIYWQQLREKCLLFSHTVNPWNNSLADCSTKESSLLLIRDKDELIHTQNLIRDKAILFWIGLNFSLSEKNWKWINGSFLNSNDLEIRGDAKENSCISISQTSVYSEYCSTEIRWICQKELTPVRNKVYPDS
The experiment is described as follows: SPR, human KLRB1 ECD; format not stated. The procedure:
The chimeric antibody 10A3D6-hIgGlk (a mouse/human chimeric antibody with 10A3D6 variable regions and human IgG1-kappa constant regions), chimeric mutated variants (10A3D6C109S, 10A3D6C109F, and 10A3D6C109V), and humanized variants of 10A3D6 created by CDR grafting (Almagro et al. 2008) were assayed for binding against human KLRB1 extracellular domain (ECD) via surface plasma resonance (SPR).
With B2, the dissociation constant (Kd) was 0.147 nM, the koff was 0.000183 s⁻¹ and the kon stood at 1.24e+06 M⁻¹ s⁻¹.

In turn, B3 returned a Kd of 0.111 nM, an off-rate (koff) of 0.000178 s⁻¹ and an on-rate constant (kon) of 1.6e+06 M⁻¹ s⁻¹.

On to B4, for which the Kd was 0.131 nM, the koff is 0.000139 s⁻¹ and the on-rate (kon) came out at 1.07e+06 M⁻¹ s⁻¹.

In turn, B5 yielded a Kd of 0.127 nM, an off-rate (koff) of 0.000107 s⁻¹ and an on-rate constant (kon) of 843000 M⁻¹ s⁻¹.

Consider B6, for which the equilibrium dissociation constant (Kd) worked out at 0.17 nM, the off-rate (koff) was 0.000139 s⁻¹ and the kon was found to be 816000 M⁻¹ s⁻¹.

For the molecule B7, the Kd was 0.172 nM, the off-rate (koff) was found to be 0.000191 s⁻¹ and the association rate constant (kon) came to 1.11e+06 M⁻¹ s⁻¹.

As a reminder, the Kd is the free concentration of one partner at which half of the binding sites on the other are occupied at equilibrium, for simple one-to-one binding. A higher Kd goes with weaker binding. One may read the koff as the rate constant with which the complex falls apart. Low readings indicate a long-lived complex, high ones a short-lived complex. By kon is commonly meant a measure of how fast the partners come together. A high value points to fast association.
